Experimental data reported in the DeepSol protein solubility set.

Assay: soluble on expression in E. coli; label from the status in PepcDB or PDB records

| Sequence | soluble on expression in E. coli |
| --- | --- |
| MGSDKIHHHHHHMNKDFTFTIKSIRLDEDYHPSDSTRITTNFANLARGSYRQANLRNALKMIDNSFNALANWDNPKGDRYSVELEIISVDMDIEGSGKTFPSIEILKTNIVDHQTNQRIEGIVGNNFSSYVRDYDFSVLLQAHNKDQPNFSIPDNFGELHGKLFQYFVNSNAYKQNFKKTPVICLSVSDNKTYHRTENQHPVLGVEYQPNESSLTEQYFKKMGLQVRYFMPPNSVAPLAFHFFGDLLNDYTNLELISTISTMGTFQKIYRPEIYNANAAAGKSYQPNLKNLDHSLTQIVYDREERSKLANEQGKFAEKHFIKPYQTVLEQWSANYV | not soluble |
| MGHHHHHHSHMFDAAFDPVLTVNSGDSVTVECVSGGVEVMPPAESPYAIPSALQAIHDSNPPRIGPHILTGPIAIAGAEPGDILEVRIEAIEPNNDWGYCAVRPLAGTLPEDFPERYVSHIAVDAQRGVCKPEWGPELPLAPFFGTMGVAPPAKYGRLSSREPREHGGNMDNKELVAGSTLYLPVWVPGANFSVGDGHGRQGDGEVCVNALEMGLTGTFTFVLHKKANGAADIAPFAWPRAETPTHYVLMGFHEDLDLAMKQALRQTIDFITARSNLTRVQAYQFCSLAVDFRVTQTVNGEKGVHALLSKGLLF | not soluble |
| AMAISITCPPPMSVEHADIWVKSYSLYSRERYICNSGFKRKAGTSSLTECVLNKATNVAHWTTPSLKCIRDPALVHQRPAPPSTVTTAGVTPQPESLSPSGKEPAAS | soluble |
| NQLLGMHQIEKEMTQYFGIQRCIVVAGDSDIQKKVLSDFGDVLTNTLNLLLPNGENTIAVMGGTTMAMVAENMGSLETEKRHNLFVPARGGIGEAVSVQANSISAVMANKTGGNYRALYVPEQLSRETYNSLLQEPSIQEVLTLISHANCVVHSIGRALHMAARRKMSDDEMVMLKQKNAVAESFGYFFDEEGKVVYKIPRIGLQLKNLQEIPYVVAIAGGKTKAKAIRAYMKNAPKQTWLITDEAAANEILKGVTL | not soluble |
| MGSDKIHHHHHHMPETAHGVPVSTVKPDGAAMALKSKLLLIILDGVPYRNWRRLMGNLEGWVQSGEARVWKMRSVLPSTSACCYASIHTGVSPQVHGILSNENRFRVGQPDIFSEVSKAGGKTGAVTHSYWSEFFRSYPFDLVEDMEYDEPGGPITHGRFHTMTGYNARNQMTPSDVDLFATLTMLTKRHGIDYGILHTCTLDSMGHRFGNDCHEMDHAVYAMDGMLAAFLPGWIAAGYEVMVTADHGQTDRGHHGGHDDEMQDFALYYFGQGQGPETDTLLDQLQLAPTVLSRLGVPVPATMKAKPFLS | not soluble |
| MSLTDEPKLLAEPREGVPNVIDTLPAFRDYCSELASSHGSLAADAERASGFRYGHEDWLVQFKRDGAGIGLLDPQALAAAGADWNDFNRAVGDAVWILHDSLQDLPGFDELGMEPQRLFDTEIAARLLGLKRFGLAAVTEHFLGLTLAKEHSAADWSYRPLPRDWRNYAALDVELLIELETKMRAELKRQGKMEWAQEEFDYALKEGLGPRKEHLIPWMHVSHITEVMRDRQALAIVRALWTRRDELAREYDIAPTLLLSDSSIIEVAKRKPHNAAQFRSIRSINERVRIHTDSEQDKMFERYAPIQRKIKPSMWKNIIQDALALPPSEWPDVDGGAARRHESQSASAPKSIRVWKERYPERLQVLNRVRKAVSQIAEDTRTPVEIVIKPQYLRNLCWTDEPRKRDVARFLSEQGARDWQVSLVAESVSRAIEGHHHHHH | soluble |
| MGSDKIHHHHHHADDSYLIDGGKANPYYNGNMMQYLESRPDYFKDLVEVIRLSGMEDVFEDEQITFFAPTDWSIRGSFNYLNRIWYRMGHDSIKSFSQIKPEVWREMLSMYIVKDKYLLKDIPQIDTTAIAAYPGQAFLSYGQQPMNMGVVYYDANNVKYAGARQIIYSYVYDFTIGDMKNAYVATSDIQPTNGVVHVLRLTDHAFGFEPYLFATKAINATIETEPDN | not soluble |
| MLRAAGNLSKSMMKSQRRFLNLQEFQSKEILEKHGCSVQNFVVASNRKEAEEKWMSFGDHEYVVKAQILAGGRGKGKFINGTKGIGGVFITKEKDAALEAIDEMIGKRLVTKQTTSEGVRVDKVMIAEGVDIKRETYLAVLMDRESNGPVVVASPDGGMDIEAVAEKTPERIFKTPIDIQMGMTEGQSLKIAKDLQFEGKLIGVAAQEIKRLYDLFIAVDATQVEINPLVETADGRVFCVDAKMNFDDSAAYRQKEIFAYETFEEHDPREVDAHQFNLNYIGMDGNIACLVNGAGLAMATMDLIKLHGGEPANFLDVGGAVTEDAVFNAVRIITSDPRVKCVLINIFGGIVNCATIANGVVSAVNKIGLNVPMVVRLEGTNVDAAKQIMKKSGLKILTANNLDEAAAKAVSSLPK | not soluble |
| MGSDKIHHHHHHMSLHYSVLASGSTGNALYIESEQTRLLVDAGLTGKAMLALFDQIHRSPEKIDGLFVTHEHSDHIKGVGIMARKYNIPLYANEKTWAAMEAKIGKIDPALKFLWEVGEVKQFGDIEVESFNVSHDAADPMFFQFAHEGKRLAHITDTGYVSDRMKGVIRGADAYIFEANHDIGMLQMGHYPWSVKRRILGDYGHVSNEDAAIAMSEVLDDRTKRIHMAHLSKDNNMKELARMSVSQTLASRDVDLSKIQLLDTDPVIPTPLLKL | not soluble |
| MSHIQRETSCSRPRLNSNLDADLYGYRWARDNVGQSGATIYRLYGKPNAPELFLKHGKGSVANDVTDEMVRLNWLTAFMPLPTIKHFIRTPDDAWLLTTAIPGKTAFQVLEEYPDSGENIVDALAVFLRRLHSIPVCNCPFNSDRVFRLAQAQSRMNNGLVDASDFDDERNGWPVEQVWKEMHKLLPFSPDSVVTHGDFSLDNLIFDEGKLIGCIDVGRVGIADRYQDLAILWNCLGEFSPSLQKRLFQKYGIDNPDMNKLQFHLMLDEFF | soluble |
| GMDKLTHYRHTIQEIIKKYYDLSNSQPATATETKISDDLPDTVGDRLIIDEQRDQYLWLCCGWDGKKRVQHIILYLQIQNGKIWIEEDSTNLAIVDEMLVAGIPQTDIILGFHHPSKRGLTEFAIA | soluble |
| MRARSSLSAGQREELVALFEQGYSYWAAAHHVGVGVYPVRALFRRFLLHGKLCLVEKPSKQQYSFEIKKEVVQRHLAGESKMDLAREFGLSSDQMVGYWSRKWRKGGDDALKLKPKGRPKGSAKPKVLTEEDKLRRENERLRAENAYLKKLRDLKNQGHALEHHHHHH | not soluble |
| MGSDKIHHHHHHMSAPTPLAEASQIPTIPALSPLTAKQSKGNFFSSNPISSFVVDTYKQLHSHRQSLELVNPGTVENLNKEVSRDVFLSQYFFTGLRADLNKAFSMNPAFQTSHTFSIGSQALPKYAFSALFANDNLFAQGNIDNDLSVSGRLNYGWDKKNISKVNLQISDGQPTMCQLEQDYQASDFSVNVKTLNPSFSEKGEFTGVAVASFLQSVTPQLALGLETLYSRTDGSAPGDAGVSYLTRYVSKKQDWIFSGQLQANGALIASLWRKVAQNVEAGIETTLQAGMVPITDPLMGTPIGIQPTVEGSTTIGAKYEYRQSVYRGTLDSNGKVACFLERKVLPTLSVLFCGEIDHFKNDTKIGCGLQFETAGNQELLMLQQGLDADGNPLQALPQL | not soluble |
| MSLGQNRLELLLFRLDGQQLYGINVFKVREVLQCPQLTLMPKSSPVVCGVANIRGATIPILDLAMATGSGALKDKNSPFVIITEYNTKTQGFLVRSVERIVNMNWEEIHPPPKGTGRDHYLTAVTRVDNQLVEIIDVEKVLAEVAPTPEAISVGVVDVETQSKALSLRVLTVDDSSVARKQVTRCLQTVGVEVVALNDGRQALDYLRKLVDEGKKPEEEFLMMISDIEMPEMDGYTLTAEIRSDPRMQKLHIILHTSLSGVFNQAMVKKVGADDFLAKFRPDDLASRVVDRIKAADISEGHHHHHH | soluble |
| GPLGSMKLLVVDDSSTMRRIIKNTLSRLGYEDVLEAEHGVEAWEKLDANADTKVLITDWNMPEMNGLDLVKKVRSDSRFKEIPIIMITTEGGKAEVITALKAGVNNYIVKPFTPQVLKEKLEVVLGTND | soluble |
